Molecular target: bioluminescent capsule containing ALuc16 in its frame structure (DEVD sequence as cargo)
Experiment: cell-based or functional assay

Sequence of bioluminescent capsule containing ALuc16 in its frame structure (DEVD sequence as cargo) (chain, as listed by the source, form in doubt): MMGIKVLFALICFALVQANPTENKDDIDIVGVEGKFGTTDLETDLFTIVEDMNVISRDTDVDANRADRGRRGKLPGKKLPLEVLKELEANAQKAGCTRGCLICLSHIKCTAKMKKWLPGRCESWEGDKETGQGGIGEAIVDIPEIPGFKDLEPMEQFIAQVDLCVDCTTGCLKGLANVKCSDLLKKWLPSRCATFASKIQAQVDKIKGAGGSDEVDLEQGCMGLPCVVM

Caspase-3 (enzyme)
luminescence intensity of COS-7 cells with versus without STS (two minutes), LAS-4000 image: 2 folds
